# Reference: US20230062712A1 (SILVERBACK THERAPEUTICS, published 2023)
# T1: His-tagged rat C-type lectin domain family 10 member A (CLEC10A) extracellular domain (rat) (UniProt P49301)
# T1 sequence (looked up): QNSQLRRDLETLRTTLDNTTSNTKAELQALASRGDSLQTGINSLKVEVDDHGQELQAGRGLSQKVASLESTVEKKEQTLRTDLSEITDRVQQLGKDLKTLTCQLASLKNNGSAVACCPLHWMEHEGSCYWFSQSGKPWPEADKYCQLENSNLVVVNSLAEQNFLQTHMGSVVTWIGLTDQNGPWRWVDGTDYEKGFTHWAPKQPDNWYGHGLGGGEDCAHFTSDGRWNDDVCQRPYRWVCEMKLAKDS
# T2: rat ASGR1 on CHO-S cells (rat, UniProt P02706 1-284)
# T2 construct: whole, on cells
# T2 sequence (looked up): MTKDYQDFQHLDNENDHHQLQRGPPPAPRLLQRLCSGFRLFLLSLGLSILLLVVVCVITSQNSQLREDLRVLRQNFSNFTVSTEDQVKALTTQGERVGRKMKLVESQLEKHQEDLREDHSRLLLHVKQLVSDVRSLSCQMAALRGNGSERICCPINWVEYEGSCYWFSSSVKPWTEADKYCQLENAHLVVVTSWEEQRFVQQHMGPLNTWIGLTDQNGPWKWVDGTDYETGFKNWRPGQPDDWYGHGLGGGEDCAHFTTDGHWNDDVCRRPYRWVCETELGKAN
# Legend:
# [1] = molecular target: T1, His-tagged rat C-type lectin domain family 10 member A (CLEC10A) extracellular domain (rat); assay: Octet, His-tagged rat CLEC10A ECD on Penta-His sensors, antibody at 25 µg/mL
# [2] = molecular target: T1, His-tagged rat C-type lectin domain family 10 member A (CLEC10A) extracellular domain (rat); assay: Octet, biotinylated mAb on streptavidin sensors, monomeric rat CLEC10A ECD from 200 nM in 3x dilutions, bivalent binding model
# rat ASGR1 on CHO-S cells = molecular target: T2, rat ASGR1 on CHO-S cells; assay: flow cytometry (Guava) on CHO-S cells transfected with rat ASGR1
# Method: Anti-human ASGR1 antibodies of this disclosure were examined for cross-reactivity with Cynomolgus macaque and rat ASGR1. Briefly, sequence encoding Cynomolgus macaque or rat ASGR1 was transiently transfected into CHO-S cells. Transfected cells were before performing cell binding assay. A total of about 1.5×10⁴ transfected cells/well were added to 96-well V-bottom assay plate, incubated at 37° C., 5% CO2 for 48-72 hours, and then washed with culture medium before adding 100 μl of each ASGR1 antibody at different concentrations starting from 100 nM and 3-fold dilutions to a total of eight wells. The cells with antibody were incubated for 40 minutes at 4° C., then washed three times with 200 μl of fresh culture medium. To each well was added 50 μl PE conjugated goat anti-human Fc (SouthernBiotech) at 1:200 dilution in culture medium and then incubated at 4° C. for 20 minutes. After washing the plate once, the treated cells were resuspended in 200 μl culture medium and then the stained cells were analyzed on GUAVA® using Incyte software.
Binder,Response (nm) [1] [nm],Kd [2] [nM],binding result (rat ASGR1 on CHO-S cells)
"ASGR1 mAb-B (antibody, from another filing, V domains shown) VH: EVQLVESGGGLVKPGGSLRLSCAASGFTFSSYSMNWVRQAPGKGLEWVSSISGSSSYIYYADSVKGRFTISRDNAKNSLYLQMNSLRAEDTAVYFCARGGSRGFDPWGQGTLVTVSS VL: DIQMTQSPSSLSASVGDRVTITCRASQSITSYLNWYQQKPGKAPKLLIYTASSLQSGVPSRFSGSGSGTDFTLTISSLQPEDFATYYCQQSHSFPFTFGPGTKVDIK",0.598,28.1,–
"hzH8K-1 (antibody, V domains shown, IgG1 and kappa constant regions) VH: QVQLQESGPGLVKPSQTLSLTCTVSGGSISSDYAWNWIRQHPGKGLEWIGYRSYRGSTSYNPSLKSRVTISVDTSKNQFSLKLSSVTAADTAVYYCARRGYYGSSSHWYFDVWGQGTTVTVSS VL: DIQMTQSPSSLSASVGDRVTITCRASENIYSYLAWYQQKPGKAPKLLIYNAKTLAEGVPSRFSGSGSGTDFTLTISSLQPEDFATYYCQHHYGTPLTFGGGTKVEIK",–,–,no binding (tested: starting from 100 nM)
"hzL4L-7 (antibody, V domains shown, IgG1 and kappa constant regions) VH: QVQLQESGPGLVKPSQTLSLTCTVSGYSISSDYAWNWIRQHPGKGLEWIGYISYSGSTRYNPSLKSRVTITRDTSKNQFSLKLSSVTAADTAVYYCARRYRYDEGYGMDYWGQGTTVTVSS VL: DIQMTQSPSSLSASVGDRVTITCRASENIYSNLAWYQQKPGKAPKLLIYAATNLADGVPSRFSGSGSGTDFTLTISSLQPEDFATYYCQHFWGTPPWTFGGGTKVEIK",–,–,no binding (tested: starting from 100 nM)
